According to patent US12338277 (ROCKEFELLER UNIVERSITY, dated 2025):
Like-named read-outs stand apart in the source and are kept apart here.

Columns and labels:
[1] = molecular target: T1, YU-2 gp120 (HIV-1 (strain YU-2), UniProt P35961 32-498); assay: ELISA, coated antigen, OD405 vs [IgG] (M)
T1 construct: domain: gp120; also called gp120WT; intact YU-2 gp120

[2] = molecular target: T1, YU-2 gp120; assay: ELISA, coated antigen, OD405 vs [IgG] (M); remark: listed apart in the source
[3] = molecular target: gp120GD324-5AA; assay: ELISA, coated antigen, OD405 vs [IgG] (M)
[4] = molecular target: T1, YU-2 gp120; assay: ELISA, coated antigen, OD405 vs [IgG] (M); remark: listed apart in the source
[5] = molecular target: gp120NNT301-303AAA; assay: ELISA, coated antigen, OD405 vs [IgG] (M)
[6] = molecular target: T1, YU-2 gp120; assay: ELISA, coated antigen, OD405 vs [IgG] (M); remark: listed apart in the source
[7] = molecular target: T1, YU-2 gp120; assay: ELISA, coated antigen, OD405 vs [IgG] (M); remark: listed apart in the source
[8] = molecular target: T1, YU-2 gp120; assay: ELISA, coated antigen, OD405 vs [IgG] (M); remark: listed apart in the source
[9] = molecular target: T1, YU-2 gp120; assay: SPR, IgG over immobilised YU-2 gp120, 1:1 fit, apparent constant
[10] = molecular target: HIV-1 CNE19 envelope on pseudovirus (HIV-1 (strain CNE19)); assay: cell-based or functional assay
[11] = molecular target: HIV-1 62357_14_D3_4589 envelope on pseudovirus (HIV-1 (strain 62357_14_D3_4589)); assay: cell-based or functional assay
[12] = molecular target: T1, YU-2 gp120; assay: SPR, apparent KD on gp120, bar graph

B1: 10-1074 (antibody, V domains shown)
VH: QVQLQESGPGLVKPSETLSVTCSVSGDSMNNYYWTWIRQSPGKGLEWIGYISDRESATYNPSLNSRVVISRDTSKNQLSLKLNSVTPADTAVYYCATARRGQRIYGVVSFGEFFYYYSMDVWGKGTTVTVSS
VL: SYVRPLSVALGETARISCGRQALGSRAVQWYQHRPGQAPILLIYNNQDRPSGIPERFSGTPDINFGTRATLTISGVEAGDEADYYCHMWDSRSGFSWSFGGATRLTVL
With B1 the “EC50 (read off the curve)” value [1] was about 0.7 nM, the “EC50 (read off the curve)” value [2] was about 0.3 nM and the binding result [3] was “binds”. The “EC50 (read off the curve)” value [4] was about 0.1 nM, the “EC50 (read off the curve)” value [5] was about 0.1 nM and the “EC50 (read off the curve)” value [6] was about 0.5 nM. The “EC50 (read off the curve)” value [7] was about 0.3 nM, the “EC50 (read off the curve)” value [8] was about 0.5 nM and the Ka [9] was 1.1e+08 M⁻¹. The Kd [9] was 9.5 nM and the koff [9] was 0.00019 s⁻¹.

B2: 10-1074GM (antibody, V domains shown)
VH: QVQLQESGPGLVKPSETLSVTCSVSGDSMNNSYWTWIRQSPGKGLEWIGYISKSESANYNPSLNSRVVISRDTSKNQLSLKLNSVTPADTAVYYCATARHGQRIYGVVSFGEFFTYYSMDVWGKGTTVTVSS
VL: SYVRPLSVALGETARISCGRQALGSRAVQWYQHRPGQAPILLIYNNQDRPSGIPERFSGTPDINFGTRATLTISGVEAGDEADYYCHMWDSRSGFSWSFGGATRLTVL
notes: also called 10-1074 glycomutant
In the case of B2, the “IC50, TZM-bl neutralization” value [10] is reported as 0.19 µg/mL, the “IC50, TZM-bl neutralization” value [11] is reported as 40.8 µg/mL and the “fold difference of KD, wildtype vs glycomutant” value [12] is reported as 1.8 fold.

B3: 10-847 (antibody, V domains shown)
VH: QVQLQESGPGLVKPSETLSVTCSVSGDSMNNYYWTWIRQSPGKGLEWIGYISDRASATYNPSLNSRVVISRDTSKNQLSLKLNSVTPADTAVYYCATARRGQRIYGVVSFGEFFYYYSMDVWGKGTTVTVSS
VL: SYVRPLSVALGETASISCGRQALGSRAVQWYQHRPGQAPILLIYNNQDRPSGIPERFSGTPDINFGTRATLTISGVEAGDEADYYCHMWDSRSGFSWSFGGATRLTVL
For B3, the “EC50 (read off the curve)” value [1] was about 0.4 nM, the “EC50 (read off the curve)” value [2] was about 0.3 nM and the binding result [3] was “binds”. The “EC50 (read off the curve)” value [4] was about 0.1 nM, the “EC50 (read off the curve)” value [5] was about 0.1 nM and the “EC50 (read off the curve)” value [6] was about 0.3 nM. For the same binder, the “EC50 (read off the curve)” value [7] was about 0.2 nM, the “EC50 (read off the curve)” value [8] was about 0.3 nM and the Ka [9] was 1.1e+08 M⁻¹. For the same binder, the Kd [9] was 8.9 nM and the koff [9] was 0.00018 s⁻¹.

B4: 10-1341 (antibody, V domains shown)
VH: QVQLQESGPGLVKPSETLSVTCSVSGDSMNNYYWTWIRQSPGKGLEWIGYISDRESATYNPSLNSRVVISRDTSTNQLSLKLNSVTPADTAVYYCATARRGQRIYGVVSFGEFFYYYSMDVWGRGTTVTVSS
VL: SYVRPLSVALGETARISCGRQALGSRAVQWYQHRPGQAPILLIYNNQDRPSGIPERFSGTPDINFGTRATLTISGVEAGDEADYYCHMWDSRSGFSWSFGGATRLTVL
B4 was tested, and the “EC50 (read off the curve)” value [1] was about 0.6 nM, the “EC50 (read off the curve)” value [2] was about 0.5 nM and the binding result [3] was “binds”. For the same binder, the “EC50 (read off the curve)” value [4] was about 0.09 nM, the “EC50 (read off the curve)” value [5] was about 0.09 nM and the “EC50 (read off the curve)” value [6] was about 0.2 nM. The “EC50 (read off the curve)” value [7] was about 0.4 nM, the “EC50 (read off the curve)” value [8] was about 0.5 nM and the Ka [9] was 1.2e+08 M⁻¹. For the same binder, the Kd [9] was 8.2 nM and the koff [9] was 0.00016 s⁻¹.

B5: 10-410 (antibody, V domains shown)
VH: QVQLQESGPGLVKPPETLSLTCSVSGASVNDAYWSWIRQSPGKRPEWVGYVHHSGDTNYNPSLKRRVTFSLDTAKNEVSLKLVALTAADSAVYFCARALHGKRIYGIVALGELFTYFYMDVWGKGTTVTVSS
VL: SFVSVAPGQTARITCGEESLGSRSVIWYQQRPGQAPSLIIYNNNDRPSGIPERFSGSPGSTFGTTATLTITSVEAGDEADYYCHIWDSRRPTNWVFGEGTTLTVL
In the case of B5, the binding result [3] is reported as “binds”, the binding result [5] is reported as “binds” and the Ka [9] is reported as 2.1e+07 M⁻¹. It also gave a Kd [9] of 47 nM and a koff [9] of 0.0017 s⁻¹.
